Earlier results on one molecule are cited in patent US20250320497A1, “COMPOSITIONS AND METHODS FOR TREATING HEPATITIS B VIRUS (HBV) INFECTION AND HBV-ASSOCIATED DISEASES” (priority 2022, published 2025).

The data set has as its system chronic HBV infection. The note with it: Phase 1, patients with chronic HBV infection.

B1: GC 1102: fully human anti-HBsAg mAb in development for chronic HBV infection (antibody, chains of the INN, looked up, V domains shown)
VH: EVQLVESGGGLVKPGGSLRLSCSASGFSLTKYKMTWVRQAPGKGLEWVSSISSTSRDIDYADSVKGRFTISRDNAKNSLFLQMSSLRVDDTAVYYCTRDGWLWGWDVRSNYYYNALDVWGQGTTVTVSS
VL: DIVVTQSPSSLSASVGDRVTITCRASQGIYNSIAWYQQKPGKAPKLLLYSTSTLLSGVPSRFSGSGSGTDYTLTITNLQPEDFATYYCQQYFVTPETFGQGTKLEIK
For the molecule B1, the “lowering of HBsAg” value is reported as 2-3 log10 IU/mL and the tolerability result was “well tolerated”.
